Measurements taken from article PMC6433694.

Experiments:
[1] = western blot of eIF4E, Huh7 and PLC/PRF/5; conditions: glycan lost; control: control shRNA
[2] = cycloheximide chase, western blot, Huh7; conditions: glycan lost; control: wild-type eIF4E
[3] = Flag IP, anti-ubiquitin blot, MG132-treated Huh7; conditions: glycan lost; control: wild-type eIF4E
[4] = western blot of exogenous eIF4E, Huh7; conditions: glycan lost; control: wild-type eIF4E

Substance	expression_or_secretion [1]	degradation_or_half_life [2]	other: ubiquitination [3]	expression_or_secretion [4]
eukaryotic initiation factor 4E (eIF4E): OGT shRNA1 / OGT shRNA2	decreases			
eukaryotic initiation factor 4E (eIF4E): T168,177A		decreases	increases	decreases
eukaryotic initiation factor 4E (eIF4E): T168A		decreases	increases	decreases
eukaryotic initiation factor 4E (eIF4E): T177A		decreases	increases	decreases
